From patent US20250002577A1

What was measured:
[1] = target: LILRB1 and LILRB2 on human primary myeloid cells (monocytes, M0 and M2c macrophages, mDCs, neutrophils); assay: flow cytometry, M2c macrophages, AF647-labelled antibody, mean of two subjects
[2] = target: LILRB1 and LILRB2 on human primary myeloid cells (monocytes, M0 and M2c macrophages, mDCs, neutrophils); assay: flow cytometry, M0 macrophages, AF647-labelled antibody, mean of two subjects
[3] = target: LILRB1 and LILRB2 on human primary myeloid cells (monocytes, M0 and M2c macrophages, mDCs, neutrophils); assay: flow cytometry, monocytes, AF647-labelled antibody, mean of two subjects

EC50 [1]: 0.0862 µg/mL | EC50 [2]: 0.0937 µg/mL | EC50 [3]: 0.823 µg/mL
B1: Comp 1 (anti-LILRB1 antibody) (antibody, human IgG1, kappa, V domains shown)
VH: QVQLKESGPGLVAPSQSLSITCTVSGFSLTNYGVSWVRQPPGKGLEWLGIIWGDGSTNYHSALISRLSISKDNSKSQVFLKLNSLQADDTATYYCAKPNWDTYAMDFWGQGTSVTVSS
VL: DIQMTQTTSSLSASLGDRVTISCRASQDISNFLNWYQQKPDGTVKLLIYCTSKLHSGVPSRFSGSGSETDYSLTISNLEQEDIATYFCQQGNTLPPTFGGGTKLEIIR
